The results in this text go back to patent US20040115741A1.

The target of this test is HM1.24 antigen (human) (UniProt Q10589). The experiment in a line: flow cytometry on KPMM2 cells, control antibody.
UniProt Q10589, sequence (Q10589 1-161 limits assumed): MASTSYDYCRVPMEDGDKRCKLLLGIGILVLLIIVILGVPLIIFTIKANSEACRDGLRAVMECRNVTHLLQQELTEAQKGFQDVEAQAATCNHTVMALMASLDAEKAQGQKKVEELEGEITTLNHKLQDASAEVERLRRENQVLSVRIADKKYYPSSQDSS

Substance “control antibody human IgG1 (hIgG1), Human IgG1, Kappa (SIGMA Cat. No. I3889)” displayed a Geo Mean of fluorescence intensity of 17.3.
